How the values were obtained:
[1] = test system: HeLa Kyoto; assay: solubility in G1/S (NP-40 vs SDS abundance) (log2 ratio); higher = more soluble; conditions: cell cycle stage: G1/S
[2] = test system: HeLa Kyoto; assay: thermal stability score vs G1/S (z-score of summed log2 fold changes over temperatures); higher = more thermally stable than in G1/S
[3] = test system: HeLa Kyoto; assay: melting temperature (median over replicates), in situ; higher = more thermally stable
[4] = test system: HeLa Kyoto; assay: solubility change mitosis vs G1/S (difference of NP-40 vs SDS log2 ratios) (log2 ratio difference); higher = more soluble in mitosis
[5] = cell cycle stage: early G1 (4.5 h after nocodazole release)
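Wherever melting temperature (median over replicates), in situ is given: HeLa Kyoto cells synchronized by double thymidine or nocodazole block, proteins quantified by TMT10plex mass spectrometry, three independent biological replicates.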
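Wherever solubility change mitosis vs G1/S (difference of NP-40 vs SDS log2 ratios) is given: synchronized HeLa Kyoto cells (double thymidine block for G1/S, nocodazole release for mitosis), protein amounts in NP-40 versus SDS lysates quantified by mass spectrometry, three biological replicates.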
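Wherever solubility in G1/S (NP-40 vs SDS abundance) is given: HeLa Kyoto cells arrested at G1/S by double thymidine block, proteins quantified by TMT10plex mass spectrometry in mild NP-40 versus SDS extracts, three biological replicates.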
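Wherever thermal stability score vs G1/S (z-score of summed log2 fold changes over temperatures) is given: synchronized HeLa Kyoto cells, proteins quantified by TMT10plex mass spectrometry, three biological replicates, mitosis taken 0.5 h after nocodazole release, G1/S directly after double thymidine block.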

| Substance | solubility in G1/S (log2) [1] | thermal stability score [2, 5] | thermal stability score ([2]; cell cycle stage: mitosis) | melting temperature ([3]; cell cycle stage: G1/S) | melting temperature ([3]; cell cycle stage: mitosis) | solubility change mitosis (log2) [4] |
| --- | --- | --- | --- | --- | --- | --- |
| MVRTKTWTLKKHFVGYPTNSDFELKTAELPPLKNGEVLLEALFLTVDPYMRVAAKRLKEGDTMMGQQVAKVVESKNVALPKGTIVLASPGWTTHSISDGKDLEKLLTEWPDTIPLSLALGTVGMPGLTAYFGLLEICGVKGGETVMVNAAAGAVGSVVGQIAKLKGCKVVGAVGSDEKVAYLQKLGFDVVFNYKTVESLEETLKKASPDGYDCYFDNVGGEFSNTVIGQMKKFGRIAICGAISTYNRTGPLPPGPPPEIVIYQELRMEAFVVYRWQGDARQKALKDLLKWVLEGKIQYKEYIIEGFENMPAAFMGMLKGDNLGKTIVKA [PTGR1] | 0.248 | 0.13 | -1.48 | 53.2 °C | 53.5 °C | -0.225 |
| MSDAAVDTSSEITTKDLKEKKEVVEEAENGRDAPANGNAENEENGEQEADNEVDEEEEEGGEEEEEEEEGDGEEEDGDEDEEAESATGKRAAEDDEDDDVDTKKQKTDEDD [PTMA] | -1.5 | -0.717 | -1.69 | 54.9 °C | 55.1 °C | -0.00535 |
| MAGNFDSEERSSWYWGRLSRQEAVALLQGQRHGVFLVRDSSTSPGDYVLSVSENSRVSHYIINSSGPRPPVPPSPAQPPPGVSPSRLRIGDQEFDSLPALLEFYKIHYLDTTTLIEPVSRSRQGSGVILRQEEAEYVRALFDFNGNDEEDLPFKKGDILRIRDKPEEQWWNAEDSEGKRGMIPVPYVEKYRPASASVSALIGGNQEGSHPQPLGGPEPGPYAQPSVNTPLPNLQNGPIYARVIQKRVPNAYDKTALALEVGELVKVTKINVSGQWEGECNGKRGHFPFTHVRLLDQQNPDEDFS [CRK] | 0.342 | -0.547 | -1.21 | 50.6 °C | 51.5 °C | -0.104 |
| MAPVGVEKKLLLGPNGPAVAAAGDLTSEEEEGQSLWSSILSEVSTRARSKLPSGKNILVFGEDGSGKTTLMTKLQGAEHGKKGRGLEYLYLSVHDEDRDDHTRCNVWILDGDLYHKGLLKFAVSAESLPETLVIFVADMSRPWTVMESLQKWASVLREHIDKMKIPPEKMRELERKFVKDFQDYMEPEEGCQGSPQRRGPLTSGSDEENVALPLGDNVLTHNLGIPVLVVCTKCDAVSVLEKEHDYRDEHLDFIQSHLRRFCLQYGAALIYTSVKEEKNLDLLYKYIVHKTYGFHFTTPALVVEKDAVFIPAGWDNEKKIAILHENFTTVKPEDAYEDFIVKPPVRKLVHDKELAAEDEQVFLMKQQSLLAKQPATPTRASESPARGPSGSPRTQGRGGPASVPSSSPGTSVKKPDPNIKNNAASEGVLASFFNSLLSKKTGSPGSPGAGGVQSTAKKSGQKTVLSNVQEELDRMTRKPDSMVTNSSTENEA [DYNC1LI2] | 0.247 | -0.131 | 0.16 | 50.6 °C | 51.5 °C | 0.046 |
| TRIO | -0.25 | -0.165 | 0.739 | 48.9 °C | 49.5 °C | -0.0514 |
| MAAETQTLNFGPEWLRALSSGGSITSPPLSPALPKYKLADYRYGREEMLALFLKDNKIPSDLLDKEFLPILQEEPLPPLALVPFTEEEQRNFSMSVNSAAVLRLTGRGGGGTVVGAPRGRSSSRGRGRGRGECGFYQRSFDEVEGVFGRGGGREMHRSQSWEERGDRRFEKPGRKDVGRPNFEEGGPTSVGRKHEFIRSESENWRIFREEQNGEDEDGGWRLAGSRRDGERWRPHSPDGPRSAGWREHMERRRRFEFDFRDRDDERGYRRVRSGSGSIDDDRDSLPEWCLEDAEEEMGTFDSSGAFLSLKKVQKEPIPEEQEMDFRPVDEGEECSDSEGSHNEEAKEPDKTNKKEGEKTDRVGVEASEETPQTSSSSARPGTPSDHQSQEASQFERKDEPKTEQTEKAEEETRMENSLPAKVPSRGDEMVADVQQPLSQIPSDTASPLLILPPPVPNPSPTLRPVETPVVGAPGMGSVSTEPDDEEGLKHLEQQAEKMVAYLQDSALDDERLASKLQEHRAKGVSIPLMHEAMQKWYYKDPQGEIQGPFNNQEMAEWFQAGYFTMSLLVKRACDESFQPLGDIMKMWGRVPFSPGPAPPPHMGELDQERLTRQQELTALYQMQHLQYQQFLIQQQYAQVLAQQQKAALSSQQQQQLALLLQQFQTLKMRISDQNIIPSVTRSVSVPDTGSIWELQPTASQPTVWEGGSVWDLPLDTTTPGPALEQLQQLEKAKAAKLEQERREAEMRAKREEEERKRQEELRRQQEEILRRQQEEERKRREEEELARRKQEEALRRQREQEIALRRQREEEERQQQEEALRRLEERRREEEERRKQEELLRKQEEEAAKWAREEEEAQRRLEENRLRMEEEAARLRHEEEERKRKELEVQRQKELMRQRQQQQEALRRLQQQQQQQQLAQMKLPSSSTWGQQSNTTACQSQATLSLAEIQKLEEERERQLREEQRRQQRELMKALQQQQQQQQQKLSGWGNVSKPSGTTKSLLEIQQEEARQMQKQQQQQQQHQQPNRARNNTHSNLHTSIGNSVWGSINTGPPNQWASDLVSSIWSNADTKNSNMGFWDDAVKEVGPRNSTNKNKNNASLSKSVGVSNRQNKKVEEEEKLLKLFQGVNKAQDGFTQWCEQMLHALNTANNLDVPTFVSFLKEVESPYEVHDYIRAYLGDTSEAKEFAKQFLERRAKQKANQQRQQQQLPQQQQQQPPQQPPQQPQQQDSVWGMNHSTLHSVFQTNQSNNQQSNFEAVQSGKKKKKQKMVRADPSLLGFSVNASSERLNMGEIETLDDY [GIGYF2] | -0.0985 | 0.406 | 0.959 | 49.4 °C | 49.8 °C | -0.00842 |
| MDQPFTVNSLKKLAAMPDHTDVSLSPEERVRALSKLGCNITISEDITPRRYFRSGVEMERMASVYLEEGNLENAFVLYNKFITLFVEKLPNHRDYQQCAVPEKQDIMKKLKEIAFPRTDELKNDLLKKYNVEYQEYLQSKNKYKAEILKKLEHQRLIEAERKRIAQMRQQQLESEQFLFFEDQLKKQELARGQMRSQQTSGLSEQIDGSALSCFSTHQNNSLLNVFADQPNKSDATNYASHSPPVNRALTPAATLSAVQNLVVEGLRCVVLPEDLCHKFLQLAESNTVRGIETCGILCGKLTHNEFTITHVIVPKQSAGPDYCDMENVEELFNVQDQHDLLTLGWIHTHPTQTAFLSSVDLHTHCSYQLMLPEAIAIVCSPKHKDTGIFRLTNAGMLEVSACKKKGFHPHTKEPRLFSICKHVLVKDIKIIVLDLR [STAMBPL1] | -0.0141 | -0.397 | -0.032 | 50.3 °C | 51 °C | -0.137 |
| MPSKKKKYNARFPPARIKKIMQTDEEIGKVAAAVPVIISRALELFLESLLKKACQVTQSRNAKTMTTSHLKQCIELEQQFDFLKDLVASVPDMQGDGEDNHMDGDKGARRGRKPGSGGRKNGGMGTKSKDKKLSGTDSEQEDESEDTDTDGEEETSQPPPQASHPSAHFQSPPTPFLPFASTLPLPPAPPGPSAPDEEDEEDYDS [DRAP1] | 0.748 | -2.19 | -2.89 | 56.9 °C | 55.7 °C | 0.215 |
| MALSKSMHARNRYKDKPPDFAYLASKYPDFKQHVQINLNGRVSLNFKDPEAVRALTCTLLREDFGLSIDIPLERLIPTVPLRLNYIHWVEDLIGHQDSDKSTLRRGIDIGTGASCIYPLLGATLNGWYFLATEVDDMCFNYAKKNVEQNNLSDLIKVVKVPQKTLLMDALKEESEIIYDFCMCNPPFFANQLEAKGVNSRNPRRPPPSSVNTGGITEIMAEGGELEFVKRIIHDSLQLKKRLRWYSCMLGKKCSLAPLKEELRIQGVPKVTYTEFCQGRTMRWALAWSFYDDVTVPSPPSKRRKLEKPRKPITFVVLASVMKELSLKASPLRSETAEGIVVVTTWIEKILTDLKVQHKRVPCGKEEVSLFLTAIENSWIHLRRKKRERVRQLREVPRAPEDVIQALEEKKPTPKESGNSQELARGPQERTPCGPALREGEAAAVEGPCPSQESLSQEENPEPTEDERSEEKGGVEVLESCQGSSNGAQDQEASEQFGSPVAERGKRLPGVAGQYLFKCLINVKKEVDDALVEMHWVEGQNRDLMNQLCTYIRNQIFRLVAVN [METTL16] | 0.161 | 1.61 | 2.17 | 50.2 °C | 50.8 °C | -0.2 |
| MKLKEVDRTAMQAWSPAQNHPIYLATGTSAQQLDATFSTNASLEIFELDLSDPSLDMKSCATFSSSHRYHKLIWGPYKMDSKGDVSGVLIAGGENGNIILYDPSKIIAGDKEVVIAQNDKHTGPVRALDVNIFQTNLVASGANESEIYIWDLNNFATPMTPGAKTQPPEDISCIAWNRQVQHILASASPSGRATVWDLRKNEPIIKVSDHSNRMHCSGLAWHPDVATQMVLASEDDRLPVIQMWDLRFASSPLRVLENHARGILAIAWSMADPELLLSCGKDAKILCSNPNTGEVLYELPTNTQWCFDIQWCPRNPAVLSAASFDGRISVYSIMGGSTDGLRQKQVDKLSSSFGNLDPFGTGQPLPPLQIPQQTAQHSIVLPLKKPPKWIRRPVGASFSFGGKLVTFENVRMPSHQGAEQQQQQHHVFISQVVTEKEFLSRSDQLQQAVQSQGFINYCQKKIDASQTEFEKNVWSFLKVNFEDDSRGKYLELLGYRKEDLGKKIALALNKVDGANVALKDSDQVAQSDGEESPAAEEQLLGEHIKEEKEESEFLPSSGGTFNISVSGDIDGLITQALLTGNFESAVDLCLHDNRMADAIILAIAGGQELLARTQKKYFAKSQSKITRLITAVVMKNWKEIVESCDLKNWREALAAVLTYAKPDEFSALCDLLGTRLENEGDSLLQTQACLCYICAGNVEKLVACWTKAQDGSHPLSLQDLIEKVVILRKAVQLTQAMDTSTVGVLLAAKMSQYANLLAAQGSIAAALAFLPDNTNQPNIMQLRDRLCRAQGEPVAGHESPKIPYEKQQLPKGRPGPVAGHHQMPRVQTQQYYPHGENPPPPGFIMHGNVNPNAAGQLPTSPGHMHTQVPPYPQPQPYQPAQPYPFGTGGSAMYRPQQPVAPPTSNAYPNTPYISSASSYTGQSQLYAAQHQASSPTSSPATSFPPPPSSGASFQHGGPGAPPSSSAYALPPGTTGTLPAASELPASQRTGPQNGWNDPPALNRVPKKKKMPENFMPPVPITSPIMNPLGDPQSQMLQQQPSAPVPLSSQSSFPQPHLPGGQPFHGVQQPLGQTGMPPSFSKPNIEGAPGAPIGNTFQHVQSLPTKKITKKPIPDEHLILKTTFEDLIQRCLSSATDPQTKRKLDDASKRLEFLYDKLREQTLSPTITSGLHNIARSIETRNYSEGLTMHTHIVSTSNFSETSAFMPVLKVVLTQANKLGV [SEC31A] | 0.0843 | 1.55 | 4.43 | 48.9 °C | 50 °C | -0.144 |
| MDAPKAGYAFEYLIETLNDSSHKKFFDVSKLGTKYDVLPYSIRVLLEAAVRNCDGFLMKKEDVMNILDWKTKQSNVEVPFFPARVLLQDFTGIPAMVDFAAMREAVKTLGGDPEKVHPACPTDLTVDHSLQIDFSKCAIQNAPNPGGGDLQKAGKLSPLKVQPKKLPCRGQTTCRGSCDSGELGRNSGTFSSQIENTPILCPFHLQPVPEPETVLKNQEVEFGRNRERLQFFKWSSRVFKNVAVIPPGTGMAHQINLEYLSRVVFEEKDLLFPDSVVGTDSHITMVNGLGILGWGVGGIETEAVMLGLPVSLTLPEVVGCELTGSSNPFVTSIDVVLGITKHLRQVGVAGKFVEFFGSGVSQLSIVDRTTIANMCPEYGAILSFFPVDNVTLKHLEHTGFSKAKLESMETYLKAVKLFRNDQNSSGEPEYSQVIQINLNSIVPSVSGPKRPQDRVAVTDMKSDFQACLNEKVGFKGFQIAAEKQKDIVSIHYEGSEYKLSHGSVVIAAVISCTNNCNPSVMLAAGLLAKKAVEAGLRVKPYIRTSLSPGSGMVTHYLSSSGVLPYLSKLGFEIVGYGCSICVGNTAPLSDAVLNAVKQGDLVTCGILSGNKNFEGRLCDCVRANYLASPPLVVAYAIAGTVNIDFQTEPLGTDPTGKNIYLHDIWPSREEVHRVEEEHVILSMFKALKDKIEMGNKRWNSLEAPDSVLFPWDLKSTYIRCPSFFDKLTKEPIALQAIENAHVLLYLGDSVTTDHISPAGSIARNSAAAKYLTNRGLTPREFNSYGARRGNDAVMTRGTFANIKLFNKFIGKPAPKTIHFPSGQTLDVFEAAELYQKEGIPLIILAGKKYGSGNSRDWAAKGPYLLGVKAVLAESYEKIHKDHLIGIGIAPLQFLPGENADSLGLSGRETFSLTFPEELSPGITLNIQTSTGKVFSVIASFEDDVEITLYKHGGLLNFVARKFS [IREB2] | 0.000606 | -0.342 | -0.0931 | 50.6 °C | 49.8 °C | 0.0731 |

From the supplement of paper PMC5998384
